Experimental data as given in IntAct's records for PubMed 23929946.

B1: Protein BRASSINOSTEROID … 1 (Arabidopsis thaliana (Mouse-ear cress)), O22476 (parent)
chain: MKTFSSFFLSVTTLFFFSFFSLSFQASPSQSLYREIHQLISFKDVLPDKNLLPDWSSNKNPCTFDGVTCRDDKVTSIDLSSKPLNVGFSAVSSSLLSLTGLESLFLSNSHINGSVSGFKCSASLTSLDLSRNSLSGPVTTLTSLGSCSGLKFLNVSSNTLDFPGKVSGGLKLNSLEVLDLSANSISGANVVGWVLSDGCGELKHLAISGNKISGDVDVSRCVNLEFLDVSSNNFSTGIPFLGDCSALQHLDISGNKLSGDFSRAISTCTELKLLNISSNQFVGPIPPLPLKSLQYLSLAENKFTGEIPDFLSGACDTLTGLDLSGNHFYGAVPPFFGSCSLLESLALSSNNFSGELPMDTLLKMRGLKVLDLSFNEFSGELPESLTNLSASLLTLDLSSNNFSGPILPNLCQNPKNTLQELYLQNNGFTGKIPPTLSNCSELVSLHLSFNYLSGTIPSSLGSLSKLRDLKLWLNMLEGEIPQELMYVKTLETLILDFNDLTGEIPSGLSNCTNLNWISLSNNRLTGEIPKWIGRLENLAILKLSNNSFSGNIPAELGDCRSLIWLDLNTNLFNGTIPAAMFKQSGKIAANFIAGKRYVYIKNDGMKKECHGAGNLLEFQGIRSEQLNRLSTRNPCNITSRVYGGHTSPTFDNNGSMMFLDMSYNMLSGYIPKEIGSMPYLFILNLGHNDISGSIPDEVGDLRGLNILDLSSNKLDGRIPQAMSALTMLTEIDLSNNNLSGPIPEMGQFETFPPAKFLNNPGLCGYPLPRCDPSNADGYAHHQRSHGRRPASLAGSVAMGLLFSFVCIFGLILVGREMRKRRRKKEAELEMYAEGHGNSGDRTANNTNWKLTGVKEALSINLAAFEKPLRKLTFADLLQATNGFHNDSLIGSGGFGDVYKAILKDGSAVAIKKLIHVSGQGDREFMAEMETIGKIKHRNLVPLLGYCKVGDERLLVYEFMKYGSLEDVLHDPKKAGVKLNWSTRRKIAIGSARGLAFLHHNCSPHIIHRDMKSSNVLLDENLEARVSDFGMARLMSAMDTHLSVSTLAGTPGYVPPEYYQSFRCSTKGDVYSYGVVLLELLTGKRPTDSPDFGDNNLVGWVKQHAKLRISDVFDPELMKEDPALEIELLQHLKVAVACLDDRAWRRPTMVQVMAMFKEIQAGSGIDSQSTIRSIEDGGFSTIEMVDMSIKEVPEGKL
partner: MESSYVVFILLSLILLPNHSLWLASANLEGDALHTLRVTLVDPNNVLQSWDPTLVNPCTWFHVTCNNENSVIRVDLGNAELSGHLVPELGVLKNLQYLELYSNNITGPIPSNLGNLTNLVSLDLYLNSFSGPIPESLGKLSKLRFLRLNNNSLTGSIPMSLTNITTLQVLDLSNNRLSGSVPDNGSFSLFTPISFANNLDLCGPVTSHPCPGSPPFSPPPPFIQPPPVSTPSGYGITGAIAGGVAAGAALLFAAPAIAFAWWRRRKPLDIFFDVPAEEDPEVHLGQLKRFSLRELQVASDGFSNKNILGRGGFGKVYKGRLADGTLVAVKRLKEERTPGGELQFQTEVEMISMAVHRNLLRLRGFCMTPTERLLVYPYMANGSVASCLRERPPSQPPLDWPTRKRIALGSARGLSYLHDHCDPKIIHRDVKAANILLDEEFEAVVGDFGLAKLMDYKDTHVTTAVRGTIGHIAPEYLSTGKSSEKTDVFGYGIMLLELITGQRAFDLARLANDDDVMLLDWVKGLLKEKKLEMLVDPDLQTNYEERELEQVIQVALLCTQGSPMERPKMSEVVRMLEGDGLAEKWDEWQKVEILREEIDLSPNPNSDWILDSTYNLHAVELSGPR

Variants of: B1
Details: with serk1_arath SERK1, Q94AG2
In the case of T750I, the “effect of a mutation on the interaction” value is reported as “disrupting interaction strength”.
